Experimental data reported in article PMC4791394.

Target: taxol-stabilized microtubules
Assay: co-sedimentation; normalized COS7 lysates in PEM buffer incubated with taxol-stabilized microtubules with 2.5 mM AMP-PNP, RT 30 min; 100,000 x g 40 min through a taxol-supplemented cushion; supernatant and pellet blotted for KIF5 and tubulin

A percent co-purified with microtubules of 100% was found for “KIF5C(1-560)^S176A-3xmCit (from UniProt P28738 1-560) (domain or fragment)” in this work.
A percent co-purified with microtubules of 60% was found for “KIF5C(1-560)^S176D-3xmCit (from UniProt P28738 1-560) (domain or fragment)” in this work.
A percent co-purified with microtubules of 100% was found for “KIF5C(1-560)^WT-3xmCit (from UniProt P28738 1-560) (domain or fragment)” in this work.
